For 1 substance, phosphorylated peIF2α 51S, densitometric analyses of western blots (HeLa cells) results are on record in US6692962.

For this test, the target named is wild type (51S) wheat eIF2α (alpha subunit of wheat eukaryotic initiation factor 2) (wheat). Put plainly: cell-based or functional assay.

Regarding “PKR (IPTG-inducible, expressed from recombinant vaccinia virus WR 68K) (from UniProt P19525 2-551) (enzyme)”, the phosphorylated peIF2α 51S, densitometric analyses of western blots (HeLa cells) turned out to be 3.8 fold.
